Assay results: the nanobody polyreactivity screen of Harvey et al. (2022)

Assay: yeast display, Sf9 membrane polyspecificity reagent, FACS + sequencing; frameworks hold sequencing errors
Summary of the method: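 In a synthetic yeast display library (Saccharomyces cerevisiae BJ5465), nanobody expression was induced with galactose for 36–48 hours. FACS gates were set low and high (top ~1%) using anti-HA fluorescence for expression and streptavidin fluorescence for binding of the Sf9 membrane reagent. Each polyreactivity label is drawn from the gate of origin.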

| Sequence | polyreactivity (PSR sort gate) |
| --- | --- |
| QVQLVESGGGLVQAGGSLRLSCAASGSIFRANALGWYRPAPGKERELVAAISASGGRTYYADSVKGRFTISRDNAKNTVYLQMNSLKPEDTAVYYCNAYYGYLYHYTYDYWGQGTQVTVSS | high polyreactivity |
| QVQLVESGGGLVQAGGSLRLSCAASGSIFRAYAMGGYRQAPGKERELVAAINWTDGSTYYAASVKGRFTISRDYAKNTVYLQMNSLKPEDTAVYYCAKDSMARHNYWGQGTQVTVSS | low polyreactivity |
| QVQLVESGGGLVQAGGSLRLSCAASGSIFRAYAMGWYRQAPGKERELVAAINWTDGSTYYADSVKGRFTISRDNAKNTVYLQMNSLKPEDTAVYYCAKDSIARHNYWGQGTQVTVSS | low polyreactivity |
| QVQLVESGGGLVQAGGSLRLSCAASGSIFRAYAMGWYRQAPGKERELVATISWSGTSTSYADSVKGRFTISRDNAKNTVYLQMNSLKPEDTAVYYCAAGYASGPRPQTAYYYWGQGTQVTVSS | low polyreactivity |
| QVQLVESGGGLVQAGGSLRLSCAASGSIFRDNAMGWYRQAPGKERELVAAITDSGGRTYYADSVKGRFTISRDNAKNTVYLQMNSLKPEDTAVYYCAAGQSGYAGRRPAFGYWGQGTQVTVSS | low polyreactivity |
| QVQLVESGGGLVQAGGSLRLSCAASGSIFRDNVMGWYRQAPGKERELVAAISKRGGSTYYADSVKGRFTISRDNAKNTVYLQMNSLKPEDTAVYYCAAPQGRSHYYRYDYWGQGTQVTVSS | high polyreactivity |
| QVQLVESGGGLVQAGGSLRLSCAASGSIFRDYAMGWYRQAPGKEMELVAAISSDGSTYYADSVKGRFTISRDNAKNTVYLQMNSLKPEDTAVYYCNAAHVAHRFIGYTRWNYYYWGQGTQVTVSS | high polyreactivity |
| QVQLVESGGGLVQAGGSLRLSCAASGSIFRDYAMGWYRQAPGKERELVAAITWSGGRTYYADSVKGRFTISRDNAKNTVYLQMNSLKPEDTAVYYCAARSTRQYEYDYWGQGTQVTVSS | low polyreactivity |
| QVQLVESGGGLVQAGGSLRLSCAASGSIFRFYAMGWYRQAPGKERELVAAITRRGGRTYYADSVKGRFTISRDNAKNTVYLQMNSLIPEDTAVYYCAAASKKPPSFEYNYWGQGTQLTVSS | high polyreactivity |
| QVQLVESGGGLVQAGGSLRLSCAASGSIFRFYAMGWYRQAPGKERELVATISKRGGTTYYADSVKGRFTISRDNAKNTVYLQMNSLKPEDTAVYYCAVRLYLEMDYWGQGTPVTVSS | high polyreactivity |
| QVQLVESGGGLVQAGGSLRLSCAASGSIFRFYAMGWYRQAPGTERELVAAISSSGSSTYYADSVKGRFTISRDNAMNTVYLQMNSLKPEDTAVYYCNARLGWSRAWSMDSWGQGTQVTVSS | high polyreactivity |
| QVQLVESGGGLVQAGGSLRLSCAASGSIFRFYTMGWYRQAPGKERELVAAIRYRVTSTYYADSVKGRFTMSRDNAKNTVYLQMNSLTPEDTAVYYCAVRRAKRRSQGVSYASYAGNYNYWGLGTQVTVSS | high polyreactivity |
| QVQLVESGGGLVQAGGSLRLSCAASGSIFRGKAMGWYRQAPGKERELVAAITRSGGRTYYADSVKGRFTISRDNAKNTVYLQMNSLKPDDTAVYYCAAEYYTGLGYWGQGTQVTVSS | high polyreactivity |
| QVQLVESGGGLVQAGGSLRLSCAASGSIFRGNAMGWSRQAPAKERELVAAISKSGGSTYYADSVKGRFTISRDNAKNTVYLQMNSLKPEDTAVYYCAARTTYLYGMYYWGQGTQVTVSS | low polyreactivity |
| QVQLVESGGGLVQAGGSLRLSCAASGSIFRGNAMGWYRQAPGKERELVASISYSGGSTYYADSVKGRFTISRDNAKNTVYLQMNSLKPEDTAVYYCAADESVAYPYSGYQYYRHIYDYWGQGTQVTVSS | low polyreactivity |
| QVQLVESGGGLVQAGGSLRLSCAASGSIFRGNGMGWYTQAPGKERELVAAISRSGGRTYYADSVKGRFTISRDNAKNTVYLQMISLNPEDTAVYSCNAARSYQYDYWGQGTQVTVSS | high polyreactivity |
| QVQLVESGGGLVQAGGSLRLSCAASGSIFRGYAMGWYRQAPGKERELVAAIRYSGARTYYADSVKGRFTISRDNAKNTVYLQMNSLKPEDTAVYYCNARYIRSYDYWGQGTQVTVSS | high polyreactivity |
| QVQLVESGGGLVQAGGSLRLSCAASGSIFRGYAMGWYRQAPGKERELVAAITSRGGSTYYADSVKGRFTISRDIAKNTVYLQMNSLKPEDTAVYYCNKRVYYPWGQGTQVTVSS | high polyreactivity |
| QVQLVESGGGLVQAGGSLRLSCAASGSIFRGYAMGWYRQAPGKERELVAAITSSGGSTNYADSVKGRFTISRDNAKNTVYLQMNSLKPEDTAVYYCNATSEEVAEYDYWGQGTQVTVSS | low polyreactivity |
| QVQLVESGGGLVQAGGSLRLSCAASGSIFRGYAMGWYRQAPGKERELVASIRWRGGRTNYADSVKGRFTISRDNAKNTVYLQRNSLKPEDTAVYYCNADQQTIRSAKNDYWGQGTQVTVSS | low polyreactivity |
| QVQLVESGGGLVQAGGSLRLSCAASGSIFRGYDMGWYRQAPGKERELVARISRGTGTHYADSVKGRFTISRDNAKNTVYLQMNSLKPEDTAVYYCAARYRYYPVTTRGYYWGQGTQVTVSS | high polyreactivity |
